From publication PMC7907143, “SPARC coordinates extracellular matrix remodeling and efficient recruitment to and migration of antigen-specific T cells in the brain following infection” (Scientific Reports, 2021)

Key:
CXCL10 = CXCL10 (UniProt P02778); conditions: cited from earlier work
[1] = biological target: Secreted Protein, Acidic, Rich in Cysteine (SPARC), recombinant murine (murine) (UniProt P07214); assay: MST; Monolith NT.115; 4.5 nM NT-495-labelled SPARC, unlabelled chemokine titrated; Ca-MST buffer (50 mM Tris pH 7.4, 150 mM NaCl, 2 mM CaCl2, 0.05% Tween 20); room temperature; three measurements; thermophoresis plus t-jump
[2] = biological target: T1, Secreted Protein, Acidic, Rich in Cysteine (SPARC), recombinant murine (murine, UniProt P07214 18-302, fluorescent label NT-495, covalently linked by NHS coupling (in the thermophoresis only; unlabelled in the gel filtration)); assay: as above; conditions: both partners purified
T1 construct: SPARC, mouse, recombinant; most likely the mature secreted protein; also called recombinant SPARC; source: bought: R&D Systems or Peprotech (recombinant murine)
T1 sequence (looked up): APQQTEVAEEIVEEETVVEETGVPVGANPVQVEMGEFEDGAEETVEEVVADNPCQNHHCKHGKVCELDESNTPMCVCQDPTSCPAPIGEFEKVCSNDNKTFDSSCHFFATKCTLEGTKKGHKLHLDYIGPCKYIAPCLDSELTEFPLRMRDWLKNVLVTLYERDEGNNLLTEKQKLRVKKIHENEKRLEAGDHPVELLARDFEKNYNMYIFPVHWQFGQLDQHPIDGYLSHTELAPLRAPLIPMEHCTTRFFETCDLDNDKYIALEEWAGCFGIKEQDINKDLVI

Q: Which Kd (CXCL10) does the source give for CXCL10 (from UniProt P02778) here?
A: 9000 nM

Q: Which Kd [1] does the source give for “CCL21, recombinant murine (from UniProt P84444 24-133) (ligand)” here?
A: 984 nM

B1: CCL19, recombinant murine (ligand, UniProt O70460 26-108, looked up)
chain: GANDAEDCCLSVTQRPIPGNIVKAFRYLLNEDGCRVPAVVFTTLRGYQLCAPPDQPWVDRIIRRLKKSSAKNKGNSTRRSPVS
notes: CCL19, mouse, recombinant; Most likely the mature chemokine without its signal peptide; source: bought: R&D Systems or Peprotech (recombinant murine)
Q: For B1, which Kd [2] is on record?
A: 1.9 nM
